From article PMC5096715

Tests used:
C3d C3d (Homo sapiens) = C3d C3d (Homo sapiens) (UniProt P01024); test: biolayer interferometry; conditions: cited from earlier work
[1] = biological target: complement component C3b, serum-derived (human) (UniProt P01024)
[2] = biological target: complement component C3b, serum-derived (human) (UniProt P01024); remark: listed apart in the source

Sequence of C3d C3d (Homo sapiens) (P01024 1002-1303): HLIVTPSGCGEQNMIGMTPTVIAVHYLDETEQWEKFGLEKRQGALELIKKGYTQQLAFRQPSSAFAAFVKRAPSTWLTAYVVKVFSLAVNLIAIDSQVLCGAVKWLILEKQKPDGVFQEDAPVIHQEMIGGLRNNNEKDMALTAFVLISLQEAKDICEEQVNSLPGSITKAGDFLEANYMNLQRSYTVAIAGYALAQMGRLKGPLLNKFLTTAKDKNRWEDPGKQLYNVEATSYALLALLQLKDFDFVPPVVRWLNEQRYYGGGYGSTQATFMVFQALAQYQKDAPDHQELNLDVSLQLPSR
Sequence of CFHR3 (Q02985 19-330): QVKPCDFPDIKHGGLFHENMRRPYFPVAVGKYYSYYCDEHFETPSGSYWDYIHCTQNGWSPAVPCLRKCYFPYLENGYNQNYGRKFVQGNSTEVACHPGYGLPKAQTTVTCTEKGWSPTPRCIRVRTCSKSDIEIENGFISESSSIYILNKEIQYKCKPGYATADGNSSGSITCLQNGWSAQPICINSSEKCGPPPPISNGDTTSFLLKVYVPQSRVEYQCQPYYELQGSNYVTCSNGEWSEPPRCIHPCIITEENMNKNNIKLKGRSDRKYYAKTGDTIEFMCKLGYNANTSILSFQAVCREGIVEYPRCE
Sequence of complement factor H (CFH), recombinant (P08603 19-1231): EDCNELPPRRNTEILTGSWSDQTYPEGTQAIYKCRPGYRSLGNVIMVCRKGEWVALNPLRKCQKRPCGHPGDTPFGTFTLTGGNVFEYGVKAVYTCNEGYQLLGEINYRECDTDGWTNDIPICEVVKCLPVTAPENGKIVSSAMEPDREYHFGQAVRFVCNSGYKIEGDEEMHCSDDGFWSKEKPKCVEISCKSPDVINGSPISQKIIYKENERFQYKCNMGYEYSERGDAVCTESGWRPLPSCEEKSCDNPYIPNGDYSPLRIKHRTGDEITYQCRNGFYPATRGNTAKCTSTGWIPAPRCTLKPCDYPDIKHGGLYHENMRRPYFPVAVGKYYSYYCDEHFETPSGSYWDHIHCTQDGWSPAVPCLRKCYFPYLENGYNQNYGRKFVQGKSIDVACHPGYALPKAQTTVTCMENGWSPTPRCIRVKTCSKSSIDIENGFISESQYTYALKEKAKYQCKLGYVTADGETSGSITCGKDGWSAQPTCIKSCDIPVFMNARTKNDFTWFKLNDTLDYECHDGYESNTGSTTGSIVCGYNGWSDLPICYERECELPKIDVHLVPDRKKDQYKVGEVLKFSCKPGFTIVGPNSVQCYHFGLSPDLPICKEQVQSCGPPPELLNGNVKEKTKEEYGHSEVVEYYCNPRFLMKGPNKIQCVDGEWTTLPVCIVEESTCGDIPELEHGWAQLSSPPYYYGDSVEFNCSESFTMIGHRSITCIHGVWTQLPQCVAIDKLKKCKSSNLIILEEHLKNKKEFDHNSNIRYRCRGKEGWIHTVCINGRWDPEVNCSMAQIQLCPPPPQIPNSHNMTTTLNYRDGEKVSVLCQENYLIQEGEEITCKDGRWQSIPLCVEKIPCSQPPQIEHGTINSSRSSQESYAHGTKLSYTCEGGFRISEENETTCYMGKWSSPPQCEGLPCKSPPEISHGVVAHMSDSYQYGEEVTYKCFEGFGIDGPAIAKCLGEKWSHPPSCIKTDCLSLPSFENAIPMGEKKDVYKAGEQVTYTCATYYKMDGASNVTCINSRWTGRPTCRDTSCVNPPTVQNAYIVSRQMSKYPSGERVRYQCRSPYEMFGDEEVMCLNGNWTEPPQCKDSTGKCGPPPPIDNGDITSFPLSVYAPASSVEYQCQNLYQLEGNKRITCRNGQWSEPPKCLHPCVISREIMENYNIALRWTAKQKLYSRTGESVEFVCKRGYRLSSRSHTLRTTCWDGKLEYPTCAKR
Sequence of CFHR1 (Q03591 19-330): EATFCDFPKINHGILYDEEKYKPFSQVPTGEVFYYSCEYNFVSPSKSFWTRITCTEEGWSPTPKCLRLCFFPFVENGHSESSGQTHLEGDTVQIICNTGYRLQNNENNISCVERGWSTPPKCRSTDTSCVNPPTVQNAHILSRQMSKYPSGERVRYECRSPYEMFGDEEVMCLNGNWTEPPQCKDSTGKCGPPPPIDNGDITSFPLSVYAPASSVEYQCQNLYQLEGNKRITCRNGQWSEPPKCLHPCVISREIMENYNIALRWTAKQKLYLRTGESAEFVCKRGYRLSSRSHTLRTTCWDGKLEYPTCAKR
Sequence of complement factor H-related protein 1 (CFHR1), recombinant wild-type (Q03591 19-330): as above

Substance: CFHR1 (from UniProt Q03591)
- Kd (C3d C3d (Homo sapiens)): 1200 nM

Substance: complement factor H-related protein 1 (CFHR1), recombinant wild-type (from UniProt Q03591 19-330) (natural protein)
- alternative pathway hemolysis of guinea pig erythrocytes in 10% NHS with 140 nM CFH plus 2 μM wild-type CFHR1 (competition with CFH for C3b; ~8% with CFH alone) [1]: 23%

Substance: CFHR1 Mut1 (N216A/D218A) (from UniProt Q03591 19-330) (natural protein)
- alternative pathway hemolysis of guinea pig erythrocytes in 10% NHS with 140 nM CFH plus 2 μM CFHR1 Mut1 (competition with CFH for C3b; ~8% with CFH alone) [1]: 8%

Substance: CFHR1 Mut3 (Y52S/S54Y/Y57E) (from UniProt Q03591 19-330) (natural protein)
- alternative pathway hemolysis of guinea pig erythrocytes in 10% NHS with 140 nM CFH plus 2 μM CFHR1 Mut3 (competition with CFH for C3b; ~8% with CFH alone) [2]: 12%

Substance: CFHR3 (from UniProt Q02985)
- Kd (C3d C3d (Homo sapiens)): 1100 nM

Substance: CFHR1 Mut2 (Q238A/Y241A) (from UniProt Q03591 19-330) (natural protein)
- alternative pathway hemolysis of guinea pig erythrocytes in 10% NHS with 140 nM CFH plus 2 μM CFHR1 Mut2 (competition with CFH for C3b; ~8% with CFH alone) [1]: 6%

Substance: complement factor H (CFH), recombinant (from UniProt P08603-1 19-1231) (natural protein)
- alternative pathway hemolysis of guinea pig erythrocytes in 10% NHS with 140 nM CFH added (~58% without added CFH) [1]: 8%
